Results reported in publication PMC5809743.

Target: FMDV protomer (VP0, VP3 and VP1) from full-length capsid precursor P1-2A processed by 3C protease (foot-and-mouth disease virus, strain O1 Manisa)
Assay: sucrose density gradient sedimentation

Substance: FMDV protomer (VP0, VP3 and VP1) from full-length capsid precursor P1-2A processed by 3C protease (complex)
- reduction in pentamer formation with 17-DMAG, against no drug: 50%
- stoichiometry N: 5
